From US20180280488A1, “Methods and Compositions for Binding Complement C3 for Targeting of Immune Cells” (University of Alaska Anchorage, priority 2017, published 2018)

Experiments:
[1] = tested on: OVA-specific T cell hybridoma D011; experiment: T cell activation: BMDC co-culture with OVA-specific reporter T cell hybridoma D011 (GFP); assay type: cell-based, mice; conditions: BMDC 24 hours with OVA treatments, D011 T cells 24 hours; mean±standard error (n=3)
Description: Bone marrow was extracted from adult BALB/c mice. Mice were euthanized and femur and humerus bones removed and cleaned of tissue. Bones were kept in RPMI in a sterile petri dish, and bone marrow was flushed from bones using RPMI and a 1 mL insulin syringe. Extracted bone marrow was filtered through a 100 μm nylon mesh filter and rinsed twice in RPMI. Bone marrow cells were then counted and plated at a density of 2×10^6 cells in culture medium (RPMI, 10% heat inactivated FBS, 1% penicillin/streptomycin). Granulocyte-macrophage colony stimulating factor (GM-CSF) and Interleukin-4 (IL-4) were added to the culture medium at 40 ng/mL and 20 ng/mL, respectively. Cells were incubated at 37° C. and medium with GM-CSF and IL-4 was replenished after 3 days. On day 6, non-adherent and loosely-adherent cells were harvested by pipetting and re-suspended in culture media.
10 μL of OPSS-liposomes containing OVA, control-liposomes containing OVA and free OVA matching the amount encapsulated in OPSS-liposomes (see liposome preparation) were incubated in 10 μL C3-positive and -negative serum for 1 hour at room temperature prior to addition to 80 μL of bone marrow-derived dendritic cells in RPMI (1% penicillin/streptomycin) containing 1.6×10^5 cells per well in a U-bottom plate. […] The co-cultures were then analyzed for T cell activation (GFP expression) by fluorescence microscopy and flow cytometry.

[2] = Liver toxicity assays (plasma AST, ALT); assay type: in vivo; conditions: A20-OVA mice, 4 days after last injection
Description: Mice were euthanized following therapy, 4 days after the last injection and blood was collected via cardiac puncture and placed in heparinized tubes. Plasma was separated from blood via centrifugation at 500×g for 15 minutes and frozen at −80° C. for subsequent analysis. Red blood cell lysis buffer (eBioscience) was added to the remaining blood for 10 minutes at room temperature. Samples were then prepared for flow cytometry analysis or frozen in culture media supplemented with 10% dimethyl sulfoxide for later use.
Mouse plasma levels of aspartate transaminase (AST) and alanine transaminase (ALT) were determined using kits purchased from BioAssay Systems (Hayward, Calif., USA). Plasma was collected from mice as previously described. Plasma samples were diluted 1:1 in assay buffer prior to addition to a Falcon flat-bottom microtest 96-well assay plate, black/clear bottom (Becton Dickinson Labware, Franklin Lakes, N.J., USA). Absorbance was measured at 340 nm at 5 and 10 minutes using a BioTek Synergy HT plate reader, and enzyme activity was calculated according to the protocol.

## ovalbumin [free OVA, Non-encapsulated ovalbumin, model tumor antigen, matched to the encapsulated amount]
[1]
  T cell activation (GFP expression): 14.4±0.8%

B1: ovalbumin (protein, UniProt P01012 2-386, looked up)
Ovalbumin: GSIGAASMEFCFDVFKELKVHHANENIFYCPIAIMSALAMVYLGAKDSTRTQINKVVRFDKLPGFGDSIEAQCGTSVNVHSSLRDILNQITKPNDVYSFSLASRLYAEERYPILPEYLQCVKELYRGGLEPINFQTAADQARELINSWVESQTNGIIRNVLQPSSVDSQTAMVLVNAIVFKGLWEKAFKDEDTQAMPFRVTEQESKPVQMMYQIGLFRVASMASEKMKILELPFASGTMSMLVLLPDEVSGLEQLESIINFEKLTEWTSSNVMEERKIKVYLPRMKMEEKYNLTSVLMAMGITDVFSSSANLSGISSAESLKISQAVHAAHAEINEAGREVVGSAEAGVDAASVSEEFRADHPFLFCIKHIATNAVLFFGRCVSP
notes: Non-encapsulated ovalbumin, model tumor antigen, matched to the encapsulated amount
[2]; normal range 15-84 U/L
  ALT in mouse plasma: 51.2±34.7 U/L
[2]; normal range 54-298 U/L
  AST in mouse plasma: 110.4±25.6 U/L
